This is an account of results in publication PMC5379955 (The Journal of Cell Biology, 2017).

B1: farnesylated Spindly (Spindly^Farn) (natural protein, human, UniProt Q96EA4 1-605, looked up)
chain: MEADIITNLRCRLKEAEEERLKAAQYGLQLVESQNELQNQLDKCRNEMMTMTESYEQEKYTLQREVELKSRMLESLSCECEAIKQQQKMHLEKLEEQLSRSHGQEVNELKTKIEKLKVELDEARLSEKQLKHQVDHQKELLSCKSEELRVMSERVQESMSSEMLALQIELTEMESMKTTLKEEVNELQYRQEQLELLITNLMRQVDRLKEEKEEREKEAVSYYNALEKARVANQDLQVQLDQALQQALDPNSKGNSLFAEVEDRRAAMERQLISMKVKYQSLKKQNVFNREQMQRMKLQIATLLQMKGSQTEFEQQERLLAMLEQKNGEIKHLLGEIRNLEKFKNLYDSMESKPSVDSGTLEDNTYYTDLLQMKLDNLNKEIESTKGELSIQRMKALFESQRALDIERKLFANERCLQLSESENMKLRAKLDELKLKYEPEETVEVPVLKKRREVLPVDITTAKDACVNNSALGGEVYRLPPQKEETQSCPNSLEDNNLQLEKSVSIYTPVVSLSPHKNLPVDMQLKKEKKCVKLIGVPADAEALSERSGNTPNSPRLAAESKLQTEVKEGKETSSKLEKETCKKLHPILYVSSKSTPETQCPQQ
modifications: farnesyl on Cys602
B2: mCherry–Spindly^Farn (natural protein, human, UniProt Q96EA4 1-605, looked up)
chain: B1 chain
modifications: farnesyl on Cys602
B3: ZW10 (natural protein, human, UniProt O43264 1-779, looked up)
chain: MASFVTEVLAHSGRLEKEDLGTRISRLTRRVEEIKGEVCNMISKKYSEFLPSMQSAQGLITQVDKLSEDIDLLKSRIESEVRRDLHVSTGEFTDLKQQLERDSVVLSLLKQLQEFSTAIEEYNCALTEKKYVTGAQRLEEAQKCLKLLKSRKCFDLKILKSLSMELTIQKQNILYHLGEEWQKLIVWKFPPSKDTSSLESYLQTELHLYTEQSHKEEKTPMPPISSVLLAFSVLGELHSKLKSFGQMLLKYILRPLASCPSLHAVIESQPNIVIIRFESIMTNLEYPSPSEVFTKIRLVLEVLQKQLLDLPLDTDLENEKTSTVPLAEMLGDMIWEDLSECLIKNCLVYSIPTNSSKLQQYEEIIQSTEEFENALKEMRFLKGDTTDLLKYARNINSHFANKKCQDVIVAARNLMTSEIHNTVKIIPDSKINVPELPTPDEDNKLEVQKVSNTQYHEVMNLEPENTLDQHSFSLPTCRISESVKKLMELAYQTLLEATTSSDQCAVQLFYSVRNIFHLFHDVVPTYHKENLQKLPQLAAIHHNNCMYIAHHLLTLGHQFRLRLAPILCDGTATFVDLVPGFRRLGTECFLAQMRAQKGELLERLSSARNFSNMDDEENYSAASKAVRQVLHQLKRLGIVWQDVLPVNIYCKAMGTLLNTAISEVIGKITALEDISTEDGDRLYSLCKTVMDEGPQVFAPLSEESKNKKYQEEVPVYVPKWMPFKELMMMLQASLQEIGDRWADGKGPLAAAFSSSEVKALIRALFQNTERRAAALAKIK
B4: ROD^Δ754–1,796 (domain or fragment, human)
chain: MWNDIELLTNDDTGSGYLSVGSRKEHGTALYQVDLLVKISSEKASLNPKIQACSLSDGFIIVADQSVILLDSICRSLQLHLVFDTEVDVVGLCQEGKFLLVGERSGNLHLIHVTSKQTLLTNAFVQKANDENRRTYQNLVIEKDGSNEGTYYMLLLTYSGFFCITNLQLLKIQQAIENVDFSTAKKLQGQIKSSFISTENYHTLGCLSLVAGDLASEVPVIIGGTGNCAFSKWEPDSSKKGMTVKNLIDAEIIKGAKKFQLIDNLLFVLDTDNVLSLWDIYTLTPVWNWPSLHVEEFLLTTEADSPSSVTWQGITNLKLIALTASANKKMKNLMVYSLPTMEILYSLEVSSVSSLVQTGISTDTIYLLEGVCKNDPKLSEDSVSVLVLRCLTEALPENRLSRLLHKHRFAEAESFAIQFGLDVELVYKVKSNHILEKLALSSVDASEQTEWQQLVDDAKENLHKIQDDEFVVNYCLKAQWITYETTQEMLNYAKTRLLKKEDKTALIYSDGLKEVLRAHAKLTTFYGAFGPEKFSGSSWIEFLNNEDDLKDIFLQLKEGNLVCAQYLWLRHRANFESRFDVKMLESLLNSMSASVSLQKLCPWFKNDVIPFVRRTVPEGQIILAKWLEQAARNLELTDKANWPENGLQLAEIFFTAEKTDELGLASSWHWISLKDYQNTEEVCQLRTLVNNLRELITLHRKYNCKLALSDFEKENTTTIVFRMFDKVLAPELIPSILEKFIRVYMREHDLQEEGGSGGGSGGGSGGGSGIHAAAKEIAEVNEINLEKVWDMLLEKWLCPSTKPGEKPSELFELQEDEALRRVQYLLLSRPIDYSSRMLFVFATSTTTTLGMHQLTFAHRTRALQCLFYLADKETIESLFKKPIEEVKSYLRCITFLASFETLNIPITYELFCSSPKEGMIKGLWKNHSHESMAVRLVTELCLEYKIYDLQLWNGLLQKLLGFNMIPYLRKVLKAISSIHSLWQVPYFSKAWQRVIQIPLLSASCPLSPDQLSDCSESLIAVLECPVSGDLDLIGVARQYIQLELPAFALACLMLMPHSEKRHQQIKNFLGSCDPQVILKQLEEHMNTGQLAGFSHQIRSLILNNIINKKEFGILAKTKYFQMLKMHAMNTNNITELVNYLANDLSLDEASVLITEYSKHCGKPVPPDTAPCEILKMFLSGLS
B5: Zwilch (natural protein)
chain: not shown

Experiment [1] addresses ROD–Zwilch–ZW10 (RZZ) complex (human, UniProt P50748 1-2209; Q9H900 1-591; O43264 1-779). In words: AUC.
Experiment [2] has as its target T1, ROD^1–1,250 (human, UniProt P50748 1-1250).
T1 sequence (looked up): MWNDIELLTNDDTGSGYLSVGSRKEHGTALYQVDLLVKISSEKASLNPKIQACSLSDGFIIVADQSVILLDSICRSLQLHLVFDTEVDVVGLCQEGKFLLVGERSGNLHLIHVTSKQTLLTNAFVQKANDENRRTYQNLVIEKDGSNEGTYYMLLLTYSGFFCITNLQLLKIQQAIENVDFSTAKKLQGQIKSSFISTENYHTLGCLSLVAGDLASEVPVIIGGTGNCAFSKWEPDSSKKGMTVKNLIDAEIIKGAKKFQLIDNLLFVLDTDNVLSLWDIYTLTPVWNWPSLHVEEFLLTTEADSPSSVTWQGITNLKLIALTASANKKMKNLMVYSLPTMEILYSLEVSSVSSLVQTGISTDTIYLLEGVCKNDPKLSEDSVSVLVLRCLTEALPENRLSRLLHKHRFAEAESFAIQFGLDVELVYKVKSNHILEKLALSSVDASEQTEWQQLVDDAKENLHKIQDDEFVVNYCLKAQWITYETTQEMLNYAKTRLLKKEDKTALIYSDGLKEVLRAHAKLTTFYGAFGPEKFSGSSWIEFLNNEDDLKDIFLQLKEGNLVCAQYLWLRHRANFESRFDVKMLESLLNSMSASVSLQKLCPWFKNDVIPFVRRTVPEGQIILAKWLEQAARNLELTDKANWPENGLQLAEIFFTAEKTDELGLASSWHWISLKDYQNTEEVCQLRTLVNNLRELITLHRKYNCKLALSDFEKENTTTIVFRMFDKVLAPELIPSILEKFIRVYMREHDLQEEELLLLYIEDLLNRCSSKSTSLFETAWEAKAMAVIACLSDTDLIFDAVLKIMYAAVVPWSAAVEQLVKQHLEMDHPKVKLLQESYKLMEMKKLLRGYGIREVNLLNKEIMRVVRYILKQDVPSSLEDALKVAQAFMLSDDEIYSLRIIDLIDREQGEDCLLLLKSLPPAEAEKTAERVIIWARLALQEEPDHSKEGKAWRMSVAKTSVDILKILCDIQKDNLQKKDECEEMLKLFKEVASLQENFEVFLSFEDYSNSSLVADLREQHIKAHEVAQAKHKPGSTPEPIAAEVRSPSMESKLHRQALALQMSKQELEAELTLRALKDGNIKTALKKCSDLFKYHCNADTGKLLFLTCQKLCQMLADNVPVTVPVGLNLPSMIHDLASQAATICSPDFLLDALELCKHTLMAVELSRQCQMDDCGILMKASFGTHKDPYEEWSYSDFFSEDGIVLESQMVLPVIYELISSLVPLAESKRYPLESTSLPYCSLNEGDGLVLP
In words: negative-stain EM 3D reconstruction.

Experiment [3] concerns the target T1, ROD^1–1,250. In words: co-expression and co-purification.
The experiment “Zwilch” concerns the target B5. In words: SEC.

Chain of ROD–Zwilch–ZW10 (RZZ) complex (Q9H900 whole entry, one chain of several): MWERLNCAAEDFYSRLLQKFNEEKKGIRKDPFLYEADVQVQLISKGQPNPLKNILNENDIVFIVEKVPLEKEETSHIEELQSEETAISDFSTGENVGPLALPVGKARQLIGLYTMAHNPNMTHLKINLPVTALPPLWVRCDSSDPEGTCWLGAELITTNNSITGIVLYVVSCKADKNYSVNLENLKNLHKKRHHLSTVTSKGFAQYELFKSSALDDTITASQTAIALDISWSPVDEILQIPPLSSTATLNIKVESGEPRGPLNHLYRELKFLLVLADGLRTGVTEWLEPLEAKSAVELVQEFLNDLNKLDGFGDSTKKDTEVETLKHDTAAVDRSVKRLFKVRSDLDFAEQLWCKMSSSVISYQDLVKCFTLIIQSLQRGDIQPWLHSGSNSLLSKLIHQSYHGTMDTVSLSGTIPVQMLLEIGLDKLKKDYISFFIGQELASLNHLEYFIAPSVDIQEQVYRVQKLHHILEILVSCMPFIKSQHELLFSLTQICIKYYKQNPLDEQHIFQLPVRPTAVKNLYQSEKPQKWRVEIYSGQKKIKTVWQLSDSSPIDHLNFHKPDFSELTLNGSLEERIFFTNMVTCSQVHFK
Chain of Zwilch (Q9H900 whole entry): as the sequence (Q9H900 whole entry, one chain of several) above

With B1, the “stoichiometry N” value in experiment [1] is 2 copies of each subunit.

Consider B2, for which the “stoichiometry N” value in experiment [1] is 2 copies of each subunit.

Consider B3, for which the binding result with ROD^1–1,250 [2] and with ROD^1–1,250 [3] was “binds” throughout.

Turning to B4, the binding result with Zwilch is reported as “binds”.

B5: the binding result with ROD^1–1,250 [2] and in the experiment with ROD^1–1,250 [3] was “binds” in each case.
